Tested on: SCN nematodes
Test: Foliar spray on strawberry leaf segments: nematode death
Format: in vivo, Heterodera glycines
Settings: Table 40, 0.6% spray solution on strawberry leaf segments
Description: To determine whether a nematicidal enzyme can cause nematode death when sprayed as a foliar treatment, a trial was performed using chitinase 19F (SEQ ID NO: 182). The free enzyme was produced as described in Example 2. A SCN hatchery was set up as described in Example 2, except that no bleach sterilization step was performed. Six days later, the concentration of hatched nematodes was determined. Leaves from Quinault strawberry plants (Fragaria× ananassa) were cut into square sections and placed in the wells of a 24-well plate with the abaxial side up. Twenty-four wells were set up for each treatment. Spray solutions were created with water alone and water plus fermentation broth with chitinase 19F (SEQ ID NO: 182). For the base strain control and chitinase solutions, 0.094 mL of fermentation broth was added to 15 mL of water (0.6% solution) to model a field spray application of 8 fl oz. per acre. Treatments were added to a small spray bottle and each leaf segment was sprayed approximately 3 times. After the leaves had dried, approximately 100 nematodes were added to each leaf segment. […] The number of alive and dead nematodes were counted for each well, and the average percentage of dead nematodes were calculated for each treatment. […]

B1: Streptomyces coelicolor Chitinase F (Chi19F) (protein)
chain: ASCSSYHAWSADANYNTGDIVRYTDGKAYIAEHANPGYDPLISTWYWDPYACDGGSQTPVGNFVVSEAQFNQMFPGRNSFYTYSGLTAALSAYPGFANTGSDTTKKQEAAAFLANVSHETGGLVYIVEQNTANYPHYCDWNQPYGCPAGQAAYYGRGPIQLSWNFNYKAAGDALGIDLLGNPWLVQNDAAVAWKTGLWYWNTQSGPGTMTPHNAMVNGAGFGQTIRSINGSLECDGKNPAQVQSRVTKYQQFAQILGVSPGGNLYC
modifications: Chitinase F (Chi19F); Streptomyces coelicolor
- Average percentage of dead nematodes at 0 hours (water only 4%): 3%
- Average percentage of dead nematodes at 24 hours (water only 5%): 12%
